According to patent publication EP4279092A1 (Bayer AG, dated 2023):

target: prostate-specific membrane antigen (PSMA) on prostate cancer cell lines (human, UniProt Q04609 1-750); experiment: cell-based or functional assay
Sequence (Q04609 whole entry): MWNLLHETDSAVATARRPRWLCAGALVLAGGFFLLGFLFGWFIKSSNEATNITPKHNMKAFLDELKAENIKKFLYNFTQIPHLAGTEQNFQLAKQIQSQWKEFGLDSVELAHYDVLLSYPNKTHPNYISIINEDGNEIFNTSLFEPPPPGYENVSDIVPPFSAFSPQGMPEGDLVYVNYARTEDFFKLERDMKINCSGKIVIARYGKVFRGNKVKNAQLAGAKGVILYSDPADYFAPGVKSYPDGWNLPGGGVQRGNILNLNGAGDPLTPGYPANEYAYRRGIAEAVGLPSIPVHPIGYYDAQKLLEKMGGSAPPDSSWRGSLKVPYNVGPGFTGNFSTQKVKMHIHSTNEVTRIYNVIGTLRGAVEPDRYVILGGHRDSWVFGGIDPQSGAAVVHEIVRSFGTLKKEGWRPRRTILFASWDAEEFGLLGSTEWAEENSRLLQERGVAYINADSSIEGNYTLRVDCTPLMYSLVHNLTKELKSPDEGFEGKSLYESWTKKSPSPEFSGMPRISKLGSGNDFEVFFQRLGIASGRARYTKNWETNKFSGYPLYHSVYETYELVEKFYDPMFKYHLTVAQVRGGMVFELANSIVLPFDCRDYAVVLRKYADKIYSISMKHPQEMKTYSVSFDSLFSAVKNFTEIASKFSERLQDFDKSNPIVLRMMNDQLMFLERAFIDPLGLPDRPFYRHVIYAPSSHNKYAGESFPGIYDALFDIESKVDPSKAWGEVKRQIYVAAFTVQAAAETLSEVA

Binder	IC50, in-vitro cytotoxicity (CellTiterGlo), C4-2 cells [kBq/ml]	IC50, in-vitro cytotoxicity (CellTiterGlo), MDA-PCa-2b cells [kBq/ml]
Ac-225-macropa-Pelgifatamab (CAR 0.8) (antibody, V domains shown, macropa chelator complexing 225Ac, coupled via thiourea to the terminal amino group of a Lysine residue; chelator-to-antibody ratio 0.8; chain and position not stated) VH: QVQLVESGGGVVQPGRSLRLSCAASGFAFSRYGMHWVRQAPGKGLEWVAVIWYDGSNKYYADSVKGRFTISRDNSKNTQYLQMNSLRAEDTAVYYCARGGDFLYYYYYGMDVWGQGTTVTVSS VL: DIQMTQSPSSLSASVGDRVTITCRASQGISNYLAWYQQKTGKVPKFLIYEASTLQSGVPSRFSGGGSGTDFTLTISSLQPEDVATYYCQNYNSAPFTFGPGTKVDIKR	0.09	0.05
Ac-225-DOTA-Pelgifatamab CAR 12.7 (antibody, V domains shown, p-SCN-Bn-DOTA chelator complexing 225Ac, coupled to the terminal amino group of Lysine residues; chelator-to-antibody ratio 12.7; chain and positions not stated) VH: QVQLVESGGGVVQPGRSLRLSCAASGFAFSRYGMHWVRQAPGKGLEWVAVIWYDGSNKYYADSVKGRFTISRDNSKNTQYLQMNSLRAEDTAVYYCARGGDFLYYYYYGMDVWGQGTTVTVSS VL: DIQMTQSPSSLSASVGDRVTITCRASQGISNYLAWYQQKTGKVPKFLIYEASTLQSGVPSRFSGGGSGTDFTLTISSLQPEDVATYYCQNYNSAPFTFGPGTKVDIKR	0.29	0.2
Ac-225-DOTA-Pelgifatamab CAR 5.7 (antibody, V domains shown, p-SCN-Bn-DOTA chelator complexing 225Ac, coupled to the terminal amino group of Lysine residues; chelator-to-antibody ratio 5.7; chain and positions not stated) VH: QVQLVESGGGVVQPGRSLRLSCAASGFAFSRYGMHWVRQAPGKGLEWVAVIWYDGSNKYYADSVKGRFTISRDNSKNTQYLQMNSLRAEDTAVYYCARGGDFLYYYYYGMDVWGQGTTVTVSS VL: DIQMTQSPSSLSASVGDRVTITCRASQGISNYLAWYQQKTGKVPKFLIYEASTLQSGVPSRFSGGGSGTDFTLTISSLQPEDVATYYCQNYNSAPFTFGPGTKVDIKR	0.15	0.09
